{"source": "paper PMC12749748", "about": "(Nature Communications, 2025)", "proteins": {"B1": {"name": "Recombinant human IRE1.KR (G547-L977) (domain or fragment, UniProt O75460 547-977, looked up)", "chain": "GSSPSLEQDDGDEETSVVIVGKISFCPKDVLGHGAEGTIVYRGMFDNRDVAVKRILPECFSFADREVQLLRESDEHPNVIRYFCTEKDRQFQYIAIELCAATLQEYVEQKDFAHLGLEPITLLQQTTSGLAHLHSLNIVHRDLKPHNILISMPNAHGKIKAMISDFGLCKKLAVGRHSFSRRSGVPGTEGWIAPEMLSEDCKENPTYTVDIFSAGCVFYYVISEGSHPFGKSLQRQANILLGACSLDCLHPEKHEDVIARELIEKMIAMDPQKRPSAKHVLKHPFFWSLEKQLQFFQDVSDRIEKESLDGPIVKQLERGGRAVVKMDWRENITVPLQTDLRKFRTYKGGSVRDLLRAMRNKKHHYRELPAEVRETLGSLPDDFVCYFTSRFPHLLAHTYRAMELCSHERLFQPYYFHEPPEPQPPVTPDAL"}}, "target": "the molecule itself", "experiment": "cryo-EM structure; IRE1:G6374:VCB complex purified by SEC, cross-linked with 500 µM BS3, 0.005% CTAB added; map at ~2.6 Å"}
{"protein": "B1", "values": [{"measurement": "stoichiometry N", "value": 2}]}
